The values that follow come from patent US20260325634 (published 2026).

This test concerns the target T1, CD123 (IL-3R alpha) (human, UniProt P26951).
T1 chain: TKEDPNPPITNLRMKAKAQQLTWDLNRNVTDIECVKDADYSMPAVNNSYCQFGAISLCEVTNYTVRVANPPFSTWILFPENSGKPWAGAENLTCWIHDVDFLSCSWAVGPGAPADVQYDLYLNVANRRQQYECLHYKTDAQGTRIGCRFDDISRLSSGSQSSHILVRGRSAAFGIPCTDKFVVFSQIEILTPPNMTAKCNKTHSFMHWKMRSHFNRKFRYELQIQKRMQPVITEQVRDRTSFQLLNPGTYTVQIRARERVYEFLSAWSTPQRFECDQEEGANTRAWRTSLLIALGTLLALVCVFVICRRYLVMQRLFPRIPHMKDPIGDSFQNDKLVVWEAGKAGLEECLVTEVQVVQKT
Put plainly: BLI. Background: BLI is a label-free optical method that tracks binding on a fibre tip over time.

What is called Kd is the free concentration of one partner at which half of the binding sites on the other are occupied at equilibrium, for simple one-to-one binding. A higher Kd goes with a looser complex.

B1: AB1 (18B4D5) (antibody, V domains shown)
VH: EVKLQESGPGLVKPSQSLSLTCTVTGYSITSDYTWNWIRQFPGNKLEWMGYISFSGSTSYNPSLKSRLSITRDTSKNQFFLQLNSVTTEDTATYYCARGLDYWGQGTTLTVSS
VL: DIVMTQSPAIMSASLGERVTMTCTASSSISSSYLYWYQQKPGSSPKLWIYSTSNLASGVPARFSGSGSGTSYSLTISSMEAEDAATYYCHQLHRSPWTFGGGTKLEIKR
For the molecule B1, the Kd is below 1 pM.
